The assay has as its target mouse RANK (RANKL receptor on RAW264 cells) (mouse) (UniProt O35305). Nature of the assay: cell-based or functional assay.
Sequence of UniProt O35305 (O35305 31-625): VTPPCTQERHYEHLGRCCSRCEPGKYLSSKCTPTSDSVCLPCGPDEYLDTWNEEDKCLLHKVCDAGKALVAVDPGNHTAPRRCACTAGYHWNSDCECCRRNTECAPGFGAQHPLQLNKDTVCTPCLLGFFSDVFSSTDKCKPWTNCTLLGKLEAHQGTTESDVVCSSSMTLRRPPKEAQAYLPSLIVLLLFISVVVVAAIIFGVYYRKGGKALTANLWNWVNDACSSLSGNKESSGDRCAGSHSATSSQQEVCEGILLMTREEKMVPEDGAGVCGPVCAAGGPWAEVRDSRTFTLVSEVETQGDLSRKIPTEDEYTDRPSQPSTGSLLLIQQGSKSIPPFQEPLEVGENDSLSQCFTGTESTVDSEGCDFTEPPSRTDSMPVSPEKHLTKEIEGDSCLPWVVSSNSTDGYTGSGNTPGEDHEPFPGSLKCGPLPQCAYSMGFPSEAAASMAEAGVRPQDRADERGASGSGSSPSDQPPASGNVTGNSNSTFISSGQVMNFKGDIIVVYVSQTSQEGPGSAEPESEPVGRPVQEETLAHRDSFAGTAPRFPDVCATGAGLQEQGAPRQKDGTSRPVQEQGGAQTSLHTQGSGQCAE

As for “GST-RANKL (fused protein of glutathione-S-transferase with human soluble RANKL residues 140-317) (ligand)”, the osteoclast induction activity in RAW264 cells (at concentrations of 10 nM and 5 nM) (fold over mouse soluble RANKL) is greater than 2.

(Values after patent publication US20100105612A1.)
